Experimental findings from IntAct's records for PubMed 15047801 are described below.

B1: Zinc finger CCCH domain-containing protein 7B (Homo sapiens), Q9UGR2 (parent)
chain: MERQKRKADIEKGLQFIQSTLPLKQEEYEAFLLKLVQNLFAEGNDLFREKDYKQALVQYMEGLNVADYAASDQVALPRELLCKLHVNRAACYFTMGLYEKALEDSEKALGLDSESIRALFRKARALNELGRHKEAYECSSRCSLALPHDESVTQLGQELAQKLGLRVRKAYKRPQELETFSLLSNGTAAGVADQGTSNGLGSIDDIETDCYVDPRGSPALLPSTPTMPLFPHVLDLLAPLDSSRTLPSTDSLDDFSDGDVFGPELDTLLDSLSLVQGGLSGSGVPSELPQLIPVFPGGTPLLPPVVGGSIPVSSPLPPASFGLVMDPSKKLAASVLDALDPPGPTLDPLDLLPYSETRLDALDSFGSTRGSLDKPDSFMEETNSQDHRPPSGAQKPAPSPEPCMPNTALLIKNPLAATHEFKQACQLCYPKTGPRAGDYTYREGLEHKCKRDILLGRLRSSEDQTWKRIRPRPTKTSFVGSYYLCKDMINKQDCKYGDNCTFAYHQEEIDVWTEERKGTLNRDLLFDPLGGVKRGSLTIAKLLKEHQGIFTFLCEICFDSKPRIISKGTKDSPSVCSNLAAKHSFYNNKCLVHIVRSTSLKYSKIRQFQEHFQFDVCRHEVRYGCLREDSCHFAHSFIELKVWLLQQYSGMTHEDIVQESKKYWQQMEAHAGKASSSMGAPRTHGPSTFDLQMKFVCGQCWRNGQVVEPDKDLKYCSAKARHCWTKERRVLLVMSKAKRKWVSVRPLPSIRNFPQQYDLCIHAQNGRKCQYVGNCSFAHSPEERDMWTFMKENKILDMQQTYDMWLKKHNPGKPGEGTPISSREGEKQIQMPTDYADIMMGYHCWLCGKNSNSKKQWQQHIQSEKHKEKVFTSDSDASGWAFRFPMGEFRLCDRLQKGKACPDGDKCRCAHGQEELNEWLDRREVLKQKLAKARKDMLLCPRDDDFGKYNFLLQEDGDLAGATPEAPAAAATATTGE

In this assay the parent is B1. Particulars: with nsp3_rots4 nsp3, Q00721.
Sequence of nsp3_rots4 nsp3, Q00721 (Q00721 whole entry): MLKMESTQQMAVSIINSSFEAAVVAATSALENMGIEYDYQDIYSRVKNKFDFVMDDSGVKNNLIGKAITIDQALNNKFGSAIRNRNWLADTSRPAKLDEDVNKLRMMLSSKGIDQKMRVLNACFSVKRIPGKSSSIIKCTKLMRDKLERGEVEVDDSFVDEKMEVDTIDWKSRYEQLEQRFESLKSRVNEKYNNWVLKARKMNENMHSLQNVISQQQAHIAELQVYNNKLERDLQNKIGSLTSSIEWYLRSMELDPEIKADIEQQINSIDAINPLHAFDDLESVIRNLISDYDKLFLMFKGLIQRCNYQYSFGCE
L252A;D253A;D254A: the “effect of a mutation on the interaction” value is “decreasing interaction”.
